Consider three molecules from patent US20200239578A1 (Eli Lilly, published 2020).

The target in assay [1] is human BTLA on human cells (PBMCs, Ramos.2G6.4C10 B cell line, primary B cells) (human, UniProt Q7Z6A9 31-289). In words: cell-based or functional assay.
Assay [2] has as its target T1, cynomolgus monkey BTLA on cyno PBMCs (cynomolgus monkey, UniProt Q7Z6A9 31-289 (human entry)).
T1 construct: Endogenous BTLA on primary cells; also called cynomolgus monkey BTLA-expressing cells
T1 chain: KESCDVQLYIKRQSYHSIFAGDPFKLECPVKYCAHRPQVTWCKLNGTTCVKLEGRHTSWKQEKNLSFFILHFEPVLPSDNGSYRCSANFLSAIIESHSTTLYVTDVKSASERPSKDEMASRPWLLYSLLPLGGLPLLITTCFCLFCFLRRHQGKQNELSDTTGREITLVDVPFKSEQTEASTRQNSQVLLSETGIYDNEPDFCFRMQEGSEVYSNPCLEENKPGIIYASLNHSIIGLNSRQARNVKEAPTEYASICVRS
In words: flow cytometry (FACS) on primary cells. How it is done:
(§1) Isolated primary cells are quantified using a Countess cell counter, and resuspended at 2×10⁶ cells per ml in FACS buffer. Flow cytometry experiments is performed the same day as cell isolation by plating 50 μl (˜0.1×10⁶) cells into a 96 well plate (Greiner #650101). Non-specific antibody binding is prevented by adding 1 μl Fc block (for example, from BD #553142) for 15 minutes at 4 ° C. without washing.
(§2) BTLA antibody binding is tested at various concentrations, by serial dilution in FACS buffer. For example, a purified antibody and controls starting at different concentrations are first diluted to 30 μg/mL and serial 1:3 dilutions of the starting material is performed for a total of 10 titrations (plus untreated control). Antibody titrations are incubated with cells for 20 minutes at 4° C., and washed with FACS buffer prior to stain. Cells are stained using fluorochrome-conjugated antibodies to identify specific cell types (eg. CD19 B cells, CD4 T cells or CD8 T cells) or using a secondary antibody to identify the presence or absence of antibody binding to that subset. Staining is performed for 20 minutes at 4° C. and washed 3 times with FACS buffer prior to analysis on a flow cytometer. Results are analyzed using standard FACS analysis software (eg. FACSDiva) and reported as mean fluorescent intensity of the secondary antibody for each titration. A positive result, which indicates binding, is determined by mean fluorescent intensity staining above background.
Background: In flow cytometry, cells or beads pass a laser one at a time.

Assay [3] deals with T2, mouse BTLA on splenocytes of C57BL6 mice (mouse (C57BL6), UniProt Q7TSA3 30-306).
T2 construct: Endogenous BTLA on primary cells; also called mouse BTLA-expressing cells
T2 sequence: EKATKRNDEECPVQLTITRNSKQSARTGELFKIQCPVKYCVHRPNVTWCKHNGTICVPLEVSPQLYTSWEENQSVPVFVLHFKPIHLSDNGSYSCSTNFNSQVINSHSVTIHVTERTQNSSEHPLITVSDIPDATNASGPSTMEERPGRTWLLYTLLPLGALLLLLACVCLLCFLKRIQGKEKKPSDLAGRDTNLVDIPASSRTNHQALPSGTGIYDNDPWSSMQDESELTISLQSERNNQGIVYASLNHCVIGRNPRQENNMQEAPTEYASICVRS
As to the kind of experiment: flow cytometry (FACS) on primary cells. The method, then:
as §1, §2

The target of assay [4] is T3, human BTLA protein (immobilised on the Biacore chip) (human, UniProt Q7Z6A9 31-150, limits assumed).
T3 construct: also called B and T Lymphocyte Attenuator; CD272
T3 sequence: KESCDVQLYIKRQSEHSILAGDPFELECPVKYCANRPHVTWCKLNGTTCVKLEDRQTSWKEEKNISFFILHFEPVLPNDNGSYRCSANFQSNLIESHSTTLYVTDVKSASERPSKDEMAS
In words: SPR (Biacore 3000), BTLA amine-coupled to the chip, antibody flowed, 25 C, 1:1 Langmuir fit. How it is done:
(§3) The binding affinity and kinetics of the BTLA agonist antibodies of the present invention (22B3, 23C8, and 25F7) to BTLA are measured by surface plasmon resonance using Biacore® 3000 (GE Healthcare). […] The experiments are carried out at 25° C. in HBS-EP buffer (GE Healthcare BR100669; 10 mM HEPES, 150 mM NaCl, 3 mM EDTA, 0.05% surfactant P20, pH 7.4). For each cycle, 250 μL antibody sample is flowed through flow cell 1 and 2 at 50 μ1/min, and then dissociated for 10 minutes. The chip surface is regenerated with 5 μL injection of glycine buffer at pH 1.5 at […] flow rate. The data are fit to a 1:1 Langmiur binding model to derive kₒₙ, k_{off,} and to calculate KD. Data shown below are the average of three experiments for human, cyno, rat and murine for 22B3.
(In general: SPR reads the build-up and loss of mass on a sensor chip optically.)

The target in assay [5] is T4, cynomolgus monkey BTLA protein (immobilised on the Biacore chip) (cynomolgus monkey, limits assumed).
T4 construct: also called Cyno BTLA
T4 chain: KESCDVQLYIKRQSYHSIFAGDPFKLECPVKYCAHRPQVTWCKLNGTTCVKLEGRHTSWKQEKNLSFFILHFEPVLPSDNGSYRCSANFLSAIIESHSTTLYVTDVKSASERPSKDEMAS
Described as above. How it is done: as §3

The target in assay [6] is T5, murine (Balbc) BTLA protein (immobilised on the Biacore chip) (mouse (Balbc), UniProt Q7TSA3 30-183, limits assumed).
T5 construct: also called Mouse Balbc BTLA
T5 chain: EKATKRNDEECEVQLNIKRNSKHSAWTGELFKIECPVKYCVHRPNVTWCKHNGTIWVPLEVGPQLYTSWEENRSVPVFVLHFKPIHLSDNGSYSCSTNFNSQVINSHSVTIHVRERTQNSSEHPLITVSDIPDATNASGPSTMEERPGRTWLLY
The description is as above. The method, then: as §3

Assay [7] has as its target T6, murine (C57BL6) BTLA protein (immobilised on the Biacore chip) (mouse (C57BL6), UniProt Q7TSA3 30-183, limits assumed).
T6 construct: also called Mouse C57BL6 BTLA
T6 chain: T5 chain with E12P, N16T, K18T, H23Q, W26R, E34Q, W56C, G62S, R73Q, R114T
Described as above. The method, then: as §3

The target in assay [8] is T7, rat BTLA protein (immobilised on the Biacore chip) (rat, UniProt Q6PNM1 30-183, limits assumed).
T7 sequence (looked up): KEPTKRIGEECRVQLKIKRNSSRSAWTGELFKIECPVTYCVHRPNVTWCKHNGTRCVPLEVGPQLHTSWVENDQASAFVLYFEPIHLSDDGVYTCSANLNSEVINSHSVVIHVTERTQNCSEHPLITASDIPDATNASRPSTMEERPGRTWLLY
Described as above. How it is done:
as §3

The target of assay [9] is T5, murine (Balbc) BTLA protein …. As to the kind of experiment: SPR (Biacore 3000), BTLA amine-coupled to the chip, antibody flowed. The method, then: as §3
Assay [10] has as its target T6, murine (C57BL6) BTLA protein …. Described as above. How it is done: as §3

Where a chain is given by its changes, count along the chain named.

B1: Antibody 22B3 (antibody, human IgG4 S228P, kappa, F234A L235A, V domains shown)
VH: QVQLVQSGAEVKKPGASVKVSCKASGFSLSSYGVSWVRQAPGQGLEWMGAISYDGITYYASWAKSRVTMTRDTSTSTVYMELSSLRSEDTAVYYCARGDYYDDYVYVYALDIWGQGTLVTVSS
VL: EIVLTQSPGTLSLSPGERATLSCQASQSISTALAWYQQKPGQAPRLLIYAASTLASGIPDRFSGSGSGTDFTLTISRLEPEDFAVYYCQQGYSSSNLDNVFGGGTKVEIKR
notes: also called humanized 22B3; BTLA agonist antibody 22B3
What is called Kd is the concentration at which binding is half-saturated. Broadly, the koff is a measure of how fast the partners let go of each other. Broadly, the kon is the rate constant with which the complex forms. On to B1, for which, in assay [1], the “IC50 of inhibition of human primary B cell proliferation ([3H]-thymidine)” value was 0.32 nM. Also, in assay [1], the “IC50 of inhibition of human primary B cell proliferation ([3H]-thymidine), similar experiment beside Mab8D5” value amounted to 0.32 nM. Also, the “fold increase in tyrosine phosphorylation of BTLA over background compared to negative control (Ramos B cell line, MSD)” value in assay [1] was found to be 2.41 fold. The binding result in [2] and in [3] was “binds” throughout. Moreover, the dissociation constant Kd in [4] turned out to be 0.365 nM; in assay [5], 0.27 nM; in assay [6], 32.5 nM; in assay [7], 147 nM; in [8] it was 24.1 nM. The koff in [4] turned out to be 0.00219 s⁻¹; in [5], 0.000647 s⁻¹; in assay [6], 0.0858 s⁻¹; in assay [7] it was 0.265 s⁻¹; in assay [8], 0.0462 s⁻¹. Besides, the kon in assay [4] came out at 5.87e+06 M⁻¹ s⁻¹; in assay [5], 2.45e+06 M⁻¹ s⁻¹; in [6], 2.6e+06 M⁻¹ s⁻¹; in assay [7], 1.89e+06 M⁻¹ s⁻¹; in assay [8], 2.1e+06 M⁻¹ s⁻¹.

B2: Antibody 23C8 (antibody, human IgG4 S228P, kappa, F234A L235A, V domains shown)
VH: EVQLVESGGGLVQPGGSLRLSCAASGFDISKYNIQWVRQAPGKGLEWVGFINYGGSAYYASRAKGRFTISRDDSKNSLYLQMNSLKTEDTAVYYCARGLSNSDLWGQGTLVTVSS
VL: DIQMTQSPSSLSASVGDRVTITCQASQSISSWLSWYQQKPGKAPKLLIYRASTLASGVPSRFSGSGSGTDFTFTISSLQPEDIATYYCQSTYGGVVGSTSDDNPFGGGTKVEIKR
notes: also called BTLA agonist antibody 23C8
B2: the “IC50 of inhibition of human primary B cell proliferation ([3H]-thymidine)” value in [1] came out at 0.14 nM. The binding result is reported as “binds” in assay [2], “no binding” in assay [9] and “no binding” in [10]. Further, the figures for the Kd in [4] and in assay [5] were 1.93 nM and 35.4 nM, respectively. In addition, the off-rate (koff) in assay [4] was 0.000293 s⁻¹; in assay [5], 0.00309 s⁻¹. For the same molecule, the on-rate constant (kon) was 159000 M⁻¹ s⁻¹ in assay [4] and 87100 M⁻¹ s⁻¹ in assay [5].

B3: Antibody 25F7 (antibody, human IgG4 S228P, kappa, F234A L235A, V domains shown)
VH: QVQLVQSGAEVKKPGASVKVSCKASGFSLSTYAMNWVRQAPGQGLEWMGIISDDGTTYYATWAKGRVTMTRDTSTSTVYMELSSLRSEDTAVYYCARDAGAGGVQDYLTLWGQGTLVTVSS
VL: DIVMTQSPDSLAVSLGERATINCQASENIYNFLAWYQQKPGQPPKLLIYSASTLASGVPDRFSGSGSGTDFTLTISSLQAEDVAVYYCQQGSSNSNIDNPFGGGTKVEIKR
notes: also called BTLA agonist antibody 25F7
In the case of B3, in assay [1], the “IC50 of inhibition of human primary B cell proliferation ([3H]-thymidine)” value is 0.17 nM and the “fold increase in tyrosine phosphorylation of BTLA over background compared to negative control (Ramos B cell line, MSD)” value was found to be 1.47 fold. Besides, the binding result in assay [2] was “binds”. Further, in [3], the binding result is “binds”. In assay [4], this molecule came in with a Kd of 206 nM, a koff of 0.0142 s⁻¹ and a kon of 68600 M⁻¹ s⁻¹. Moreover, in [7], binding was characterised by a dissociation constant (Kd) of 4.63 nM, the koff was 0.00035 s⁻¹ and the kon came out at 77000 M⁻¹ s⁻¹.
